The values below come from PMC12377726 (Proceedings of the National Academy of Sciences of the …, 2025).

First the molecules themselves.
B1: G001_LD_V07A_VRC01c_41 (antibody, V domains shown)
VH: QVQLVQSGAEVKKPGASVRVSCRASGYTFSDYYIHWVRQAPGQGLEWMGWINPTSGGTNYAQRFQGRVTMTRDTSISTAYMELSRLRSDDTAVYYCARNLGNSGWYFAWGQGTLVTVSS
VL: DIQMTQSPSTLSASVGDRVTITCRASQSISSWLAWYQQKPGKAPKLLIYKASSLESGVPSRFSGSGSGTEFTLTISNLQPDDFGTYYCQQYETFGQGTKVEIK
B2: G001_gp1_V08_VRC01c_114 (antibody, V domains shown)
VH: QVQLVQSGAEVKKPGASGKVSCKASGYTFTDYYMYWVRQAPGQGLEWIGWINPTSGGSNYAQKFQGRVTMTRDTSISTAYMELSRLRSDDTAVYYCARRSEDRKAFDIWGQGTMVTVSS
VL: DIQMTQSPSTLSASVGDRVTITCRASQSISSWLAWYQQKPGKAPKLLIYKASSLESGVPSKFSGSGSGTEFTLTISSLQPDDFATYYCQQYDTFGQGTKLEIK
B3: G001_gp1_V08_VRC01c_120 (antibody, V domains shown)
VH: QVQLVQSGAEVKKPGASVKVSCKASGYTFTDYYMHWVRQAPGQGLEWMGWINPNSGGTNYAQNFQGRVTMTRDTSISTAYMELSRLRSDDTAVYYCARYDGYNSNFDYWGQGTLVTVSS
VL: DIQMTQSPSTLSASVGDRVTITCRASQSISNWLAWFQQKPGKAPKLLIYKASNLESGVPSRFSGSGSGTEFTLTISSLQPDDFATYYCQKYNTFGQGTKLEIK
B4: G001_gp1_V08_VRC01c_116 (antibody, V domains shown)
VH: QVQLVQSGAEVKKPGASGKVSCKASGYTFTDYYMYWVRQAPGQGLEWMGWINPNSGGSNYAQKFQGRVTMTRDTSISTAYMELSRLRSDDTAVYYCARRSEDRKAFDIWGQGTMVTVSS
VL: DIQMTQSPSTLSASVGDRVTITCRASQSISSWLAWYQQKPGKAPKLLIYKASSLESGVPSKFSGSGSGTEFTLTISSLQPDDFATYYCQQYDTFGQGTKLQIK
B5: G001_gp1_V08_VRC01c_121 (antibody, V domains shown)
VH: QVQLVQSGAEVRKPGASVKVSCKASGYTFTDYYMHWVRQAPGQGLECMGWINPDSGGTNYAQKFQGRVTMTRDTSISTVYMELSRLRSDDTAVYYCARPALYDSSGYNWAYWGQGSLVTVSS
VL: DIQMTQSPSTLSASVGDRVTITCRASQSINRWLAWYQQKPGKAPKLLIYKTSSLENGVPSRFNGSGSGTEFTLTISSLQPDDFATYYCQHYETFGQGTKVEIK
B6: G001_gp1_V08_VRC01c_122 (antibody, V domains shown)
VH: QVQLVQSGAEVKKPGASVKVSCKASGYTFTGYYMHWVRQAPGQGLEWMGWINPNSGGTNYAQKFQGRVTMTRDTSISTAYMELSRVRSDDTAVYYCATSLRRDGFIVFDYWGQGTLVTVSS
VL: DIQMTQSPSTLSASVGDRVTITCRASQSISSWLAWYQQKPGKAPKLLIYKASSLESGVPSRFSGSGSGTEFTLTISSLQPDDFATYYCQQYETFGQGTKVEIK
B7: G001_LD_V07A_VRC01c_46 (antibody, V domains shown)
VH: QVQLVQSGAEVKKPGASVKVSCKASGYTFTDYYMHWVRQAPGQGLEWMGWINPNSGGTNYAQKFQGWVTMTRDTSISTAYMELTRLRSDDTAVYYCAVRKNGGDCSFCFGYWGQGTLVTVSS
VL: QSVLTQPPSVSGAPGQRVTISCTGSSSNIGAGYDVHWYQQLPGTAPKLLIYGNNNRPSGVPDRFSGSKSGTSASLAITGLQAEDEADYYCQSYEMFGGGTKLTVL
B8: G001_gp1_V08_VRC01c_115 (antibody, V domains shown)
VH: QVQLVQSGAEVKKPGASVKVFCKTSGYIFTDYYMHWVRQAPGQGLEWMGWINPNSGGTNYAQKFQGRVTMTRDTSISTAYMELSRLRSDDTAVYYCARAYYGDYGDYWGQGTLVTVSS
VL: DIVMTQSPDSLAVSLGERATINCKSSQSVLYSSDNKNYLSWYQQKPRQPPKLLIYWASTRESGVPDRFTGSGSGTDFTLTISSLQAEDVAVYYCQQYWTFGQGTKVEIK
B9: G001_gp1_V07_VRC01c_2021-0044 (antibody, V domains shown)
VH: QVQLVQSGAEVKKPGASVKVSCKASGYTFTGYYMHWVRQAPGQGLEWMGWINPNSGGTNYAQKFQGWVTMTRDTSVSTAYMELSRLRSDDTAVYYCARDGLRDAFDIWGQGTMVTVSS
VL: QSALTQPASVSGPPGQSITISCTGTSSDFGGHNSVSWYQQHPGKAPKLMIYDVSNRPSGVSNRFSGSKSGNTASLTISGLQAEDEADYYCSSYKVFGGGTKLTVL
B10: G001_gp1_V07_VRC01c_97 (antibody, V domains shown)
VH: QVQLVQSGAEVKKPGASVKVSCKASGYSFTDYYMHWVRQAPGQGLEWMGWINPNSGGTNYAQKFQGRVTMTRDTSISTAYMELSRLRSDDTAVYYCASDVEMANRGGWKFDYWGQGTLVTVSS
VL: QSALTQPASVSGSPGQSITISCTGTSSDVGSYNLVSWYQQHPGTAPKLMIYEVSKRPSGVSNRFSGSKSGNTASLTISGLQAEDEADYYCCSYEVFGGGTKLTVL
B11: G001_gp1_V07_VRC01c_91 (antibody, V domains shown)
VH: QVQLVQSGAEVKKPGASVKVSCKASGYTFTDYYIHWVRQAPGQGLEWMGWISPNSGGTNFAQKFQGSVTMTRDTSISTAYMELSRLRSDDTAVYFCARDGGWKRGWGFQFWGQGTLVTVSS
VL: QSALTQPPSASGSPGQSVTISCTGTSSDVGDYKYVSWYQQHPGKAPKLVIYEVSKRPSGVPDRFSGSKSGNTASLTVSGLQAEDEADYYCSSYEVFGGGTKLTVL
B12: G001_gp1_V07_VRC01c_90 (antibody, V domains shown)
VH: QVQLVQSGAEVKKPGASVKVSCKASGYTFTDYYMHWVRQAPGQGLEWMGWINPNSGGTNYAQKFQGRVTMTRDTSISTAYVVLTRLRSDDTAVYYCATVEWGGSGWNYDYWGQGTLVTVSS
VL: EIVMTQSPATLSVSPGERATLSCRASQSVSSNLAWYQQKPGQAPRLLIYGASTRATGIPARFSGSGSGTEFTLTISSLQSEDFAVYYCQQYETFGQGTKVEIK
B13: G001_gp1_V07_VRC01c_94 (antibody, V domains shown)
VH: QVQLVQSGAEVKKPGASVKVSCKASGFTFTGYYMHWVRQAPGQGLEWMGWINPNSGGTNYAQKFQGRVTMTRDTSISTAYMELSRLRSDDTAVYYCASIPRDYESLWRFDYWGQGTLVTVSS
VL: EIVMTQSPATLSVSPGERATLSCRASQSVSSNLAWYQQKPGQAPRLLIYGASTRATGIPARFSGSGSGTEFTLTISSLQSEDFAVYYCQQYNTFGQGTRLEIK
B14: G001_gp1_V08_VRC01c_123 (antibody, V domains shown)
VH: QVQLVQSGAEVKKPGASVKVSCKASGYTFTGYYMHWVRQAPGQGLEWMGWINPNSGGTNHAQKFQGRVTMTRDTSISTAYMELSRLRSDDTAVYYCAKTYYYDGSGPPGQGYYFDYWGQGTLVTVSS
VL: EIVMTQSPATLSVSPGERATLSCRANQSVSSNLAWYQQKPGQAPRLLIYGASTRATGIPARFSGSGSGTEFTLTISSLQSEDFAVYYCQQYNSFGQGTKLEIK
B15: G001_gp1_V07_VRC01c_2021-0048 (antibody, V domains shown)
VH: RVQLVQSGAEVKKPGASVKVSCKASGYTFTGYYMHWVRQAPGQGLEWMGWINPNSGGTNYAQKFQGRVTMTRATSISTAYMELSRLRFDDTAVYYCARGGSRGWSLDYWGQGTLVTVSS
VL: DIQMTQSPSSLSASVGDRVTITCQASQDISNYLNWYQQKLGKAPKLLIYDASNLETGVPSRFSGSGSGTDFSLTISSLQPEDIATYYCQQYETFGQGTKLEIK
B16: G001_LD_V07A_VRC01c_40 (antibody, V domains shown)
VH: not shown
VL: DIQMTQSPSSLSASVGDRVTITCQASQDISNYLNWYQQKPGKAPKLLIYDASNLETGVPSRFSGSASGTESSFTISSLQPEDIATYYCQQYETFGPGTKVDIK
B17: G001_gp1_V08_VRC01c_126 (antibody, V domains shown)
VH: QVQLVQSGAEVKKPGASVKVSCKASGYTFTGYYMHWVRQAPGQGLEWMGWINPNSGGTNYAQKFQDWVTMTRDTSISTAYMELNRLRSDDAAIYYCARADIVATIWALDYWGQGTLVTVSS
VL: DIQMTQSPSSLSASVGDRVTITCQASQDISTYLNWYQQKPGKAPKLLIYDASNLETGVPSRFSGSGSGTDFTFTISSLQPEDSATYYCQQYGTFGQGTKVEIK
B18: G001_gp1_V08_VRC01c_117 (antibody, V domains shown)
VH: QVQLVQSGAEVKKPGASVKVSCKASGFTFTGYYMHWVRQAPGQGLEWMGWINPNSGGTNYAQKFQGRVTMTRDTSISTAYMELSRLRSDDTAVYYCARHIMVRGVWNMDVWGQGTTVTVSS
VL: DIQMTQSPSSLSASVGDRVTITCQASQDISNYLNWYQQKPGKAPKLLIYDASNLEKGVPSRFSGGGSGTDFTFTISSLQPEDIATYYCQQYEFFGPGTKVDIK
B19: G001_gp1_V07_VRC01c_92 (antibody, V domains shown)
VH: QVQLVQSGAEVRKPGASVKVSCKASGYTFTDSYMHWVRQAPGQGLEWMGWINPNSGGTNYAQKFQGRVTMTRDTSITTAYMELSRLRFDDTAIYYCATVATIAAPWAFDYWGQGALVTVSS
VL: DIQMTQSPSSLSASVGDRVSITCQASQDINNYLNWYQQKPGKAPKLLIYDVSNLQTGVPSRFSGRGSGTDFTFTISSLQPEDSATYYCQQYERFGQGTKLEIK
B20: G001_gp1_V08_VRC01c_119 (antibody, V domains shown)
VH: QVQLVQSGADVKKPGASVKVSCKASGYTFSGYYMHWVRQAPGQGLEWMGWINPNSGGTNYAQNFQGRVTMTRDTSISTAYMELSSLTSDDTAVYYCASPRYSNGNRCYRYWGQGTLVTVSS
VL: DIQMTQSPSSLSASVGDRVTITCQASQDISNYLNWYQHHPGRAPKLLIYDASNLETGVPSRFSGSGSGTDFTFTISSLQPEDVATYYCQQYDYFGPGTKVDIK
B21: G001_gp1_V07_VRC01c_99 (antibody, V domains shown)
VH: QVQLVQSGAEVKKPGASVKVSCKASGYTFTDYYMHWVRQAPGQGLEWMGWINPNSGGTNYAQKFQGRVTMTRDTSISTAYMDLSRLRSDDTAMYYCATSPHEYSTSWEFDSWGQGTLVTVSS
VL: DIVLTQSPGTLSLSPGERATLSCRASQSVSSSNLAWYQQKPGQAPRLLIYGAFKRATGIPDRFSGSGSGTDFTLTISRLEPEDFAVYYCQQYETFGQGTKVEIK
B22: G001_LD_V07A_VRC01c_65 (antibody, V domains shown)
VH: QVQLVQSGAEVKKPGASVKVSCKASGYTFTGYYMHWVRQAPGQGLEWMGWINPNSGGTNYAQKFQGYVTMTRDTSISTAFMELSRLRSDDAAVYYCATSIAAPDSYWYFDLWGRGTLVTVSS
VL: EIVLTQSPGTLSLSPGERATLSCRASQSVTSSYLAWYQQKPGQAPRLLIYGASSRATGIPDRFSGSGSGTDFTLTISRLEPEDFAVYYCQQYEFFGQGTKLEIK
B23: G001_gp1_V08_VRC01c_128 (antibody, V domains shown)
VH: QVQLVQSGAEVKKPGASVKVSCKASGYTFIDYYMHWVRQAPGQGLEWMGWINPNSGGTNYAQQFQGWVTMTRDTSISTAYMELSRLRSDDTAVYYCATSIVAAGSYWYFDLWGRGTLVTVSS
VL: EIVLTQSPGTLSLSPGERATLSCRASQSVTSSYLAWYQKKPGQAPRLLIYGASSRATGIPDRFSGSGSGTDFTLTISRLEPEDFAVYYCQQYEFFGQGTKLEIK
B24: G001_gp1_V08_VRC01c_130 (antibody, V domains shown)
VH: QVQLVQSGAEVKKPGASVKVSCKASGYTFTGYYMHWVRQAPGQGLEWLGWINPNSGGTNYAQKFQGWVTMTRDTSISTAYMELSRLRSDDTAVYYCATVAGYSSSWQRGWAFDIWGQGTMVTVSS
VL: EIVLTQSPGTLSLSPGEGATLSCRASQSVSSSSLAWYQQKPGQAPRLLIYGASSRATGIPDRFSGSGSGTDFTLTISRLEPEDFAVYYCQLYETFGQGTKVEIK

The test deals with eOD-GT8 (engineered outer domain germline-targeting version 8), monomer (HIV-1 gp120 engineered outer domain, …).
As for B1, the binding result is recorded as “binds”.

For the molecule B2, the binding result was “binds”. Consider B3, for which the binding result is “binds”.

Take B4: the binding result is reported as “binds”. The same measure for B5: “binds”. The same measure for B6: “binds”; for B7: “binds”; for B8: “binds”. Regarding B9, the binding result is “binds”.

Take B10: the binding result was “binds”. On to B11, for which the binding result is given as “binds”.

Consider B12, for which the binding result is “binds”. On to B13, for which the binding result was “binds”.

As for B14, the binding result is listed as “binds”. With B15 the entry was “binds”. The same measure for B16: “binds”; for B17: “binds”; for B18: “binds”. In the case of B19, the binding result was “binds”.

With B20, the binding result is “binds”. Consider B21, for which the binding result is “binds”. With B22 the entry was “binds”.

Regarding B23, the binding result was “binds”. With B24 the entry was “binds”.
